The results in this text go back to patent US7465537B2, “Compounds and methods for inhibiting hepatitis C virus replication” (The Board of Trustees of the University of Arkansas, priority 2005, dated 2008).

Data set [1] relates to HCV-Luc replicon. The data set can be described thus: HCV-Luc replicon luciferase assay in Huh-7 cells. Type of data set: cell-based, hepatitis C virus. The following applies: peptide added to Huh-7 cells containing the replicon; 48 hours. As to the method:
HCV Replicon assays: Huh-7 cells were transiently transfected with replicon RNA having a firefly (P. pyralis) luciferase gene (0.2 μg/well), and with a control plasmid pRL (0.05 μg/well) having a renilla (R. reniformis) luciferase gene, using DMRIEC (Invitrogen) reagent as per the kit protocol (19). The specific additions of pmNS3, mutant replicon, pwt-NS3 etc were done concurrently. The cells were lysed after 48 hours, and luciferase activity detected using the DUAL LUCIFERASE assay kit (Promega) (24, 25).
Trans complementation assays: These assays were performed in the same manner as the regular replicon assays except that in the trans complementation assays two RNA's of different replicons (wild type and the mutant) were added along with a pRL plasmid to control for transfection efficiency.
In vivo the dominant negative mNS3 (pmNS3) down regulates the activity of the HCV-Luc replicon: Huh-7 cells were plated in a 12-well plate at 0.1 million cells per well. […]
The peptide was introduced into Huh-7 cells containing the HCV luciferase replicon. 48 hours after introduction of the peptide, luciferase activity was measured. […]
A general note: Replicon systems follow genome replication, usually without infectious particles.

In data set [2] the test system is 45:30mer DNA substrate. The data set can be described thus: Steady state DNA unwinding assay. Type of data set: biochemical. As to the method: FIGS. 12A-C. Steady state unwinding activity of mutant versus wild type NS3h. A) The assay for measuring helicase unwinding activity is depicted. A partially duplexed substrate containing 30 bp and 15 nt of ss overhang (45:30mer) was incubated with NS3h in the presence of ATP and Mg^+2 leading to unwinding of the duplex. B) Comparison of unwinding of DNA and RNA substrates by NS3h. Otherwise identical 250 nM duplexed DNA and RNA substrates were incubated with 100 nM NS3h. Reactions were initiated by addition of 5 mM ATP and 10 mM MgCl2 and quenched by addition of 200 mM EDTA/0.7% SDS. C) Unwinding of 250 nM substrate under steady state conditions. Unwinding by 100 nM NS3h (●), NS3h KDA (∘), and NS3h DDDD (▪) occurred at rates of 5.3 nM min^−1, 5.7 nM min^−1, and 4.1 nM min^−1, respectively.
The substrate used was a 45-mer/30-mer containing 30 base pairs of double-stranded DNA with a 15 base 3′ single-stranded overhang. One strand was radiolabeled by incubation with γ-^32P-ATP and T4 polynucleotide kinase at 37° C. for 60 min. Unincorporated ATP was removed by SEPHADEX G-25 filtration. Equimolar amounts of labeled and complementary unlabeled strands were combined, heated to 95° C. for 10 min, and cooled slowly to room temperature to generate the final substrate. For steady state unwinding experiments, 100 nM NS3h was incubated with 250 nM substrate in 25 mM HEPES (pH=7.5), 0.5 mM EDTA, 10 mM MgCl2, 10 mM NaCl, 0.1 mg/ml BSA. Reactions were initiated by addition of 5 mM ATP. Aliquots were taken at specific time points and the reaction was quenched by addition of 200 mM EDTA, 0.7% SDS. Substrate and product were separated by native polyacrylamide gel electrophoresis and detected and quantified by phosphorimaging analysis.

For data set [3], the target named is fluorescein-labeled U20 RNA. The data set can be described thus: RNA binding assay by fluorescence polarization. The following applies: 37° C. As to the method: (§1) FIGS. 10A and B. Binding of mutant NS3h to fluorescein-labeled U20 RNA (FIG. 10A) or dT15 DNA (FIG. 10B). Nucleic acid binding was determined by measuring fluorescence polarization following incubation of protein and nucleic acid at 37° C. Data were fit to a hyperbola using Kaleidagraph software.
(§2) Varying concentrations of NS3h were incubated with 500 pM 5′-fluorescein-labeled rU20 (Integrated DNA Technologies) in 50 mM MOPS-K+(pH 7.0), 10 mM NaCl, 50 μM EDTA, 0.1 mg/ml BSA for 5 minutes at 37° C. Binding was measured as a function of fluorescence polarization using a Beacon fluorescence polarization system. Data were fit to a hyperbola using Kaleidagraph software.
(In fluorescence polarisation assays a small probe gives low polarisation when free and higher when bound to something large.)

A short description of data set [4]: Coupled ATPase assay stimulated by polyU. The conditions noted are these: saturating polyU. Type of data set: biochemical. As to the method:
FIG. 11. ATPase activity of mutant NS3h was measured as a function of NADH concentration in a coupled assay at varying concentrations of polyU. Data were fit to a hyperbola using Kaleidagraph software. […] Specific activity of NS3h DDDD (▪) was lower.
NS3h was incubated with 5 mM ATP in 50 mM HEPES (pH=7.5), 5 mM EDTA, 10 mM MgCl2, 10 mM NaCl, 0.1 mg/ml BSA, 4 mM phosphoenolpyruvate, 10 U/ml pyruvate kinase/lactate dehydrogenase, and 0.7 mg/ml NADH. Absorbance of NADH at 380 nm was measured at 1 sec intervals for a period of 30 sec in the presence of the indicated concentrations of poly-U. Hydrolysis rates were calculated using an extinction coefficient of 1,210 M^−1 cm^−1 for NADH. Data were fit to a hyperbola using Kaleidagraph software.

Data set [5] relates to 45:30mer DNA substrate. The data set can be described thus: Single turnover DNA unwinding assay (quench-flow, two-step mixing). Type of data set: biochemical. The conditions noted are these: for single turnover unwinding rate / amplitude for unwinding: 500 nM enzyme; for single turnover unwinding rate: 2 nM substrate, fit to equation 1; for amplitude for unwinding: single turnover. As to the method:
FIG. 14. Single turnover DNA unwinding by NS3h and NS3h mutant enzymes. A two-step mixing technique was used to measure single-turnover unwinding in the presence of excess NS3h. NS3h (500 nM) or mutant enzyme was rapidly mixed with substrate followed by a 10-second incubation. A second, rapid mixing step followed in which ATP, Mg^+2, and protein trap (poly dT) was added. Data were fit according to equation 1 resulting in unwinding rates of 3.1±0.1 s^−1 and 3.7±0.1 s−1 for NS3h (●) and NS3h KDA (♦), respectively. The amplitudes for unwinding were 0.35±0.01 nM and 0.21±0.01 nM for NS3h and NS3h KDA, respectively.
Unwinding assays were carried out using a Quench-Flow apparatus (RQF-3, KinTek Instruments, Austin, Tex.) with a two-step mixing protocol (49). Reactions were carried out in 25 mM MOPS (pH 7.0), 10 mM NaCl, 0.1 mM EDTA (pH 8.0), 2 mM βME, and 0.1 mg/mL BSA at 37° C.; all concentrations are post-mixing. NS3h (500 nM) was mixed with 2 nM DNA substrate (described in steady state section) for 10 seconds before adding 5 mM ATP, 10 mM MgCl2, 60 nM annealing trap (complementary to the displaced strand), and 100 μM poly-dT protein trap. The reaction was quenched after 0.1-15 seconds by ejection into a tube containing 200 mM EDTA, 0.7% SDS. Double- and single-stranded DNA were resolved on a native 20% polyacrylamide gel. The radiolabeled substrate and product were detected using a PHOSPHORIMAGER (Molecular Dynamics, Sunnyvale, Calif.); quantitation was performed with IMAGEQUANT software. The ratio of single- to double-stranded DNA was determined and plotted as a function of time. Data were fit to Equation 1, using KALEIDAGRAPH (Synergy Software, Reading, Pa.). This equation describes a 5-step mechanism for DNA unwinding that is necessary to fit the substantial lag phase associated with unwinding of the substrate (49, 52, 53). A{1−[1+kobst+1/2 (kobst)^2+1/6 (kobst)^3+1/24(kobst)^4]e^−kobs^t} Eq. 1 Results Crystallization and Structural Analysis of NS3h Bound to (dU)16

Data set [6] concerns partial duplex DNA substrate (15 nt single stranded, 30 base pairs). Kind of data set: ATP-independent DNA unwinding assay. The data set is classed as biochemical. The conditions noted are these: 500 nM enzyme, excess over substrate, no ATP, 37° C. As to the method: FIG. 13. Graph showing ATP-independent unwinding activity of NS3h wild-type, NS3h KDA, and NS3h DDDD. NS3h, 500 nM, was incubated with a partial duplex DNA substrate containing 15 nt of single stranded DNA and 30 base pairs at 37° C. Aliquots were quenched by addition of 100 μM poly dT and 60 nM of a 30mer oligonucleotide that served to prevent reannealing. ssDNA was separated from dsDNA by native polyacrylamide electrophoresis and the resulting fractions were quantified by using IMAGEQUANT software. DNA melting is shown for NS3h (●), NS3h KDA (♦), and NS3h DDDD (▪).
NS3h or NS3h mutant enzymes (500 nM) were mixed with 2 nM DNA substrate (described in steady state section) in 25 mM MOPS (pH 7.0), 10 mM NaCl, 0.1 mM EDTA (pH 8.0), 2 mM βME, and 0.1 mg/mL BSA at 37° C. Aliquots were transferred to a ‘quench solution’ containing 200 mM EDTA, 0.7% SDS, 5 mM ATP, 10 mM MgCl2, 60 nM annealing trap, and 100 μM poly-dT protein trap. Double- and single-stranded DNA were resolved on a native 20% polyacrylamide gel. The radiolabeled substrate and product were detected using a PHOSPHORIMAGER (Molecular Dynamics, Sunnyvale, Calif.); quantitation was performed with IMAGEQUANT software. The ratio of single- to double-stranded DNA was determined and plotted as a function of time.

Data set [7] addresses dT15 DNA. The data set can be described thus: DNA binding by fluorescence polarization. The conditions noted are these: 37° C. As to the method: as §1, §2
Setting [8] is: 100 nM enzyme, 250 nM substrate.

Regarding “HIDAHFLSQTK-GGG-YARAAARQARA (HIDAHFLSQTKGGGYARAAARQARA; NS3-oligomerization inhibitor peptide with cell entry peptide) [HCV inhibitor peptide, 25 amino acid peptide: NS3 residues 541-551, three-glycine linker, peptide transduction domain …]”, the “luciferase activity of HCV luciferase replicon after peptide” value in data set [1] is “strongly reduced the luciferase activity”.

B1: NS3h: wild type HCV NS3 helicase domain, expressed and purified independently of NS3 protease (protein)
chain: AVDFVPVESMETTMRSPVFTDNSSPPAVPQTFQVAHLHAPTGSGKSTKVPAAYAAQGYKVLVLNPSVAATLGFGAYMSKAHGIDPNIRTGVRTITTGAPITYSTYGKFLADGGCSGGAYDIIICDECHSTDSTTILGIGTVLDQAETAGARLVVLATATPPGSVTVPHPNIEEVALSSTGEIPFYGKAIPIETIKGGRHLIFCHSKKKCDELAAKLSGLGLNAVAYYRGLDVSVIPTSGDVIVVATDALMTGFTGDFDSVIDCNTCVTQTVDFSLDPTFTIETTTVPQDAVSRSQRRGRTGRGRMGIYRFVTPGERPSGMFDSSVLCECYDAGCAWYELTPAETSVRLRAYLNTPGLPVCQDHLEFWESVFTGLTHIDAHFLSQTKQAGDNFPYLVAYQATVCARAQAPPPSWDQMWKCLIRLKPTLHGPTPLLYRLGAVQNEVTTTHPITKYIMACMSADLEVVT
Turning to B1, the “steady state unwinding rate” value was 5.3 nM/min in data set [2] (setting [8]) and “approximately 1 nM/min” in data set [2] (45:30mer DNA, steady state conditions). In addition, the figures for the Kd in data set [3] and in data set [7] were 47 ± 5 nM and 5.9 ± 1.4 nM, respectively. For the same molecule, the ATPase specific activity in data set [4] was 126 s⁻¹. Also, the “single turnover unwinding rate” value in data set [5] amounted to 3.1 ± 0.1 s⁻¹. Besides, the “fraction of 45:30mer unwound” value in data set [5] (same substrate, same conditions for both forms (unpublished data)) was found to be 17%. In data set [5], the amplitude for unwinding is 0.35 ± 0.01 nM. Moreover, the ATP-independent unwinding entry in data set [6] is “much greater ATP-independent unwinding than NS3h KDA or NS3h DDDD”.

B2: NS3h KDA: purified NS3 helicase domain with D543K/H545D/Q549A mutations (protein)
chain: AVDFVPVESMETTMRSPVFTDNSSPPAVPQTFQVAHLHAPTGSGKSTKVPAAYAAQGYKVLVLNPSVAATLGFGAYMSKAHGIDPNIRTGVRTITTGAPITYSTYGKFLADGGCSGGAYDIIICDECHSTDSTTILGIGTVLDQAETAGARLVVLATATPPGSVTVPHPNIEEVALSSTGEIPFYGKAIPIETIKGGRHLIFCHSKKKCDELAAKLSGLGLNAVAYYRGLDVSVIPTSGDVIVVATDALMTGFTGDFDSVIDCNTCVTQTVDFSLDPTFTIETTTVPQDAVSRSQRRGRTGRGRMGIYRFVTPGERPSGMFDSSVLCECYDAGCAWYELTPAETSVRLRAYLNTPGLPVCQDHLEFWESVFTGLTHIKADFLSATKQAGDNFPYLVAYQATVCARAQAPPPSWDQMWKCLIRLKPTLHGPTPLLYRLGAVQNEVTTTHPITKYIMACMSADLEVVT
In the case of B2, the “steady state unwinding rate” value in data set [2] (setting [8]) stood at 5.7 nM/min. In addition, the Kd in data set [3] was 38 ± 4 nM; in data set [7] it was 2.6 ± 0.8 nM. Moreover, in data set [4], the ATPase specific activity was determined as 108 s⁻¹. For the same molecule, the “single turnover unwinding rate” value in data set [5] came to 3.7 ± 0.1 s⁻¹. In addition, the amplitude for unwinding in data set [5] is 0.21 ± 0.01 nM.

The term Kd denotes a measure of binding affinity in units of concentration. Higher therefore signals weaker binding.
